The text below walks through data of the supplement of paper PMC5998384.

Data set [1] deals with HeLa Kyoto. Put plainly: solubility change mitosis vs G1/S (difference of NP-40 vs SDS log2 ratios) (log2 ratio difference); higher = more soluble in mitosis.
The subject of data set [2] is HeLa Kyoto. In words: thermal stability score vs G1/S (z-score of summed log2 fold changes over temperatures); higher = more thermally stable than in G1/S.
Data set [3] relates to HeLa Kyoto. In words: melting temperature (median over replicates), in situ; higher = more thermally stable.
Data set [4] deals with HeLa Kyoto. Put plainly: solubility in G1/S (NP-40 vs SDS abundance) (log2 ratio); higher = more soluble. The note with it: cell cycle stage: G1/S.
Where [5] appears, read: cell cycle stage: early G1 (4.5 h after nocodazole release).
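For melting temperature (median over replicates), in situ in this document: HeLa Kyoto cells synchronized by double thymidine or nocodazole block, proteins quantified by TMT10plex mass spectrometry, three independent biological replicates.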
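For solubility change mitosis vs G1/S (difference of NP-40 vs SDS log2 ratios) in this document: synchronized HeLa Kyoto cells (double thymidine block for G1/S, nocodazole release for mitosis), protein amounts in NP-40 versus SDS lysates quantified by mass spectrometry, three biological replicates.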
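For solubility in G1/S (NP-40 vs SDS abundance) in this document: HeLa Kyoto cells arrested at G1/S by double thymidine block, proteins quantified by TMT10plex mass spectrometry in mild NP-40 versus SDS extracts, three biological replicates.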
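For thermal stability score vs G1/S (z-score of summed log2 fold changes over temperatures) in this document: synchronized HeLa Kyoto cells, proteins quantified by TMT10plex mass spectrometry, three biological replicates, mitosis taken 0.5 h after nocodazole release, G1/S directly after double thymidine block.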

As for “MQRLQVVLGHLRGPADSGWMPQAAPCLSGAPQASAADVVVVHGRRTAICRAGRGGFKDTTPDELLSAVMTAVLKDVNLRPEQLGDICVGNVLQPGAGAIMARIAQFLSDIPETVPLSTVNRQCSSGLQAVASIAGGIRNGSYDIGMACGVESMSLADRGNPGNITSRLMEKEKARDCLIPMGITSENVAERFGISREKQDTFALASQQKAARAQSKGCFQAEIVPVTTTVHDDKGTKRSITVTQDEGIRPSTTMEGLAKLKPAFKKDGSTTAGNSSQVSDGAAAILLARRSKAEELGLPILGVLRSYAVVGVPPDIMGIGPAYAIPVALQKAGLTVSDVDIFEINEAFASQAAYCVEKLRLPPEKVNPLGGAVALGHPLGCTGARQVITLLNELKRRGKRAYGVVSMCIGTGMGAAAVFEYPGN [ACAA1]”, the “solubility change mitosis (log2)” value with HeLa Kyoto [1] is -0.102. For the same sequence, the thermal stability score with HeLa Kyoto [2] (setting [5]) is 0.354; with HeLa Kyoto [2] (cell cycle stage: mitosis) it was -0.509. The melting temperature stood at 55.1 °C in the data set with HeLa Kyoto [3] (cell cycle stage: G1/S) and 55.3 °C in the data set on HeLa Kyoto [3] (cell cycle stage: mitosis). The “solubility in G1/S (log2)” value with HeLa Kyoto [4] worked out at 0.126.
As for “MQRRGALFGMPGGSGGRKMAAGDIGELLVPHMPTIRVPRSGDRVYKNECAFSYDSPNSEGGLYVCMNTFLAFGREHVERHFRKTGQSVYMHLKRHVREKVRGASGGALPKRRNSKIFLDLDTDDDLNSDDYEYEDEAKLVIFPDHYEIALPNIEELPALVTIACDAVLSSKSPYRKQDPDTWENELPVSKYANNLTQLDNGVRIPPSGWKCARCDLRENLWLNLTDGSVLCGKWFFDSSGGNGHALEHYRDMGYPLAVKLGTITPDGADVYSFQEEEPVLDPHLAKHLAHFGIDMLHMHGTENGLQDNDIKLRVSEWEVIQESGTKLKPMYGPGYTGLKNLGNSCYLSSVMQAIFSIPEFQRAYVGNLPRIFDYSPLDPTQDFNTQMTKLGHGLLSGQYSKPPVKSELIEQVMKEEHKPQQNGISPRMFKAFVSKSHPEFSSNRQQDAQEFFLHLVNLVERNRIGSENPSDVFRFLVEERIQCCQTRKVRYTERVDYLMQLPVAMEAATNKDELIAYELTRREAEANRRPLPELVRAKIPFSACLQAFSEPENVDDFWSSALQAKSAGVKTSRFASFPEYLVVQIKKFTFGLDWVPKKFDVSIDMPDLLDINHLRARGLQPGEEELPDISPPIVIPDDSKDRLMNQLIDPSDIDESSVMQLAEMGFPLEACRKAVYFTGNMGAEVAFNWIIVHMEEPDFAEPLTMPGYGGAASAGASVFGASGLDNQPPEEIVAIITSMGFQRNQAIQALRATNNNLERALDWIFSHPEFEEDSDFVIEMENNANANIISEAKPEGPRVKDGSGTYELFAFISHMGTSTMSGHYICHIKKEGRWVIYNDHKVCASERPPKDLGYMYFYRRIPS [USP13]”, the “solubility change mitosis (log2)” value in the data set on HeLa Kyoto [1] is -0.0974. The thermal stability score was 0.321 in the data set on HeLa Kyoto [2] (setting [5]) and 0.746 in the data set on HeLa Kyoto [2] (cell cycle stage: mitosis). The melting temperature is 50 °C in the data set with HeLa Kyoto [3] (cell cycle stage: G1/S) and 50.2 °C in the data set with HeLa Kyoto [3] (cell cycle stage: mitosis). In the data set with HeLa Kyoto [4], the “solubility in G1/S (log2)” value is 0.0742.
Turning to “MQSWSRVYCSLAKRGHFNRISHGLQGLSAVPLRTYADQPIDADVTVIGSGPGGYVAAIKAAQLGFKTVCIEKNETLGGTCLNVGCIPSKALLNNSHYYHMAHGKDFASRGIEMSEVRLNLDKMMEQKSTAVKALTGGIAHLFKQNKVVHVNGYGKITGKNQVTATKADGGTQVIDTKNILIATGSEVTPFPGITIDEDTIVSSTGALSLKKVPEKMVVIGAGVIGVELGSVWQRLGADVTAVEFLGHVGGVGIDMEISKNFQRILQKQGFKFKLNTKVTGATKKSDGKIDVSIEAASGGKAEVITCDVLLVCIGRRPFTKNLGLEELGIELDPRGRIPVNTRFQTKIPNIYAIGDVVAGPMLAHKAEDEGIICVEGMAGGAVHIDYNCVPSVIYTHPEVAWVGKSEEQLKEEGIEYKVGKFPFAANSRAKTNADTDGMVKILGQKSTDRVLGAHILGPGAGEMVNEAALALEYGASCEDIARVCHAHPTLSEAFREANLAASFGKSINF [DLD]”, the “solubility change mitosis (log2)” value in the data set on HeLa Kyoto [1] was -0.0404. For the same sequence, the thermal stability score in the data set on HeLa Kyoto [2] (setting [5]) is -0.545; with HeLa Kyoto [2] (cell cycle stage: mitosis) it was -2.94. The melting temperature in the data set on HeLa Kyoto [3] (cell cycle stage: G1/S) was found to be 58.6 °C; in the data set with HeLa Kyoto [3] (cell cycle stage: mitosis), 56.8 °C. Also, the “solubility in G1/S (log2)” value in the data set with HeLa Kyoto [4] is -0.00434.
As to “MQTPEVPAERSPRRRSISGTSTSEKPNSMDTANTSPFKVPGFFSKRLKGSIKRTKSQSKLDRNTSFRLPSLRSTDDRSRGLPKLKESRSHESLLSPCSTVECLDLGRGEPVSVKPLHSSILGQDFCFEVTYLSGSKCFSCNSASERDKWMENLRRTVQPNKDNCRRAENVLRLWIIEAKDLAPKKKYFCELCLDDTLFARTTSKTKADNIFWGEHFEFFSLPPLHSITVHIYKDVEKKKKKDKNNYVGLVNIPTASVTGRQFVEKWYPVSTPTPNKGKTGGPSIRIKSRFQTITILPMEQYKEFAEFVTSNYTMLCSVLEPVISVRNKEELACALVHILQSTGRAKDFLTDLVMSEVDRCGEHDVLIFRENTIATKSIEEYLKLVGQQYLHDALGEFIKALYESDENCEVDPSKCSSSELIDHQSNLKMCCELAFCKIINSYCVFPRELKEVFASWKQQCLNRGKQDISERLISASLFLRFLCPAIMSPSLFNLMQEYPDDRTSRTLTLIAKVIQNLANFAKFGNKEEYMAFMNDFLEHEWGGMKRFLLEISNPDTISNTPGFDGYIDLGRELSVLHSLLWEVVSQLDKGENSFLQATVAKLGPLPRVLADITKSLTNPTPIQQQLRRFTEHNSSPNVSGSLSSGLQKIFEDPTDSDLHKLKSPSQDNTDSYFRGKTLLLVQQASSQSMTYSEKDERESSLPNGRSVSLMDLQDTHAAQVEHASVMLDVPIRLTGSQLSITQVASIKQLRETQSTPQSAPQVRRPLHPALNQPGGLQPLSFQNPVYHLNNPIPAMPKASIDSSLENLSTASSRSQSNSEDFKLSGPSNSSMEDFTKRSTQSEDFSRRHTVPDRHIPLALPRQNSTGQAQIRKVDQGGLGARAKAPPSLPHSASLRSTGSMSVVSAALVAEPVQNGSRSRQQSSSSRESPVPKVRAIQRQQTQQVQSPVDSATMSPVERTAAWVLNNGQYEEDVEETEQNLDEAKHAEKYEQEITKLKERLRVSSRRLEEYERRLLVQEQQMQKLLLEYKARLEDSEERLRRQQEEKDSQMKSIISRLMAVEEELKKDHAEMQAVIDAKQKIIDAQEKRIVSLDSANTRLMSALTQVKERYSMQVRNGISPTNPTKLSITENGEFKNSSC [RASAL2]”, the “solubility change mitosis (log2)” value in the data set with HeLa Kyoto [1] is -0.0989. For the same sequence, the thermal stability score is 1.04 in the data set on HeLa Kyoto [2] (setting [5]) and 2.25 in the data set with HeLa Kyoto [2] (cell cycle stage: mitosis). For the same sequence, the melting temperature came out at 49 °C in the data set with HeLa Kyoto [3] (cell cycle stage: G1/S) and 49.4 °C in the data set on HeLa Kyoto [3] (cell cycle stage: mitosis). Besides, in the data set with HeLa Kyoto [4], the “solubility in G1/S (log2)” value came to 0.0337.
With “MQVTLKTLQQQTFKIDIDPEETVKALKEKIESEKGKDAFPVAGQKLIYAGKILNDDTALKEYKIDEKNFVVVMVTKPKAVSTPAPATTQQSAPASTTAVTSSTTTTVAQAPTPVPALAPTSTPASITPASATASSEPAPASAAKQEKPAEKPAETPVATSPTATDSTSGDSSRSNLFEDATSALVTGQSYENMVTEIMSMGYEREQVIAALRASFNNPDRAVEYLLMGIPGDRESQAVVDPPQAASTGAPQSSAVAAAAATTTATTTTTSSGGHPLEFLRNQPQFQQMRQIIQQNPSLLPALLQQIGRENPQLLQQISQHQEHFIQMLNEPVQEAGGQGGGGGGGSGGIAEAGSGHMNYIQVTPQEKEAIERLKALGFPEGLVIQAYFACEKNENLAANFLLQQNFDED [RAD23B]”, in the data set with HeLa Kyoto [1], the “solubility change mitosis (log2)” value was 0.104. The thermal stability score with HeLa Kyoto [2] (setting [5]) is -2.19; in the data set on HeLa Kyoto [2] (cell cycle stage: mitosis), -2.38. Besides, the values for the melting temperature in the data set on HeLa Kyoto [3] (cell cycle stage: G1/S) and with HeLa Kyoto [3] (cell cycle stage: mitosis) were 57 °C and 54.1 °C, respectively. In addition, in the data set on HeLa Kyoto [4], the “solubility in G1/S (log2)” value was found to be 0.0413.
